Legend:
[1] = biological target: hIL-4Rα–hIL-13Rα1 complex (human type II IL-4 receptor) (human) (UniProt P78552)
IL-4Rα (Homo sapiens) = IL-4Rα (Homo sapiens) (UniProt P24394); details: cited from earlier work
UniProt P24394, sequence (P24394 26-232): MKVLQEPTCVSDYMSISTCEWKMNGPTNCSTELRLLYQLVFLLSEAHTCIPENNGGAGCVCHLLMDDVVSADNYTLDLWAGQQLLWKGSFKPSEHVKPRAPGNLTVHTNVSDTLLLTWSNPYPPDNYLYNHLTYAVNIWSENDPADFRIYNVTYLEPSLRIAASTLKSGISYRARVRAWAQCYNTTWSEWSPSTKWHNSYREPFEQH

UniProt P78552, sequence (P78552 22-343, chain 1 of 2): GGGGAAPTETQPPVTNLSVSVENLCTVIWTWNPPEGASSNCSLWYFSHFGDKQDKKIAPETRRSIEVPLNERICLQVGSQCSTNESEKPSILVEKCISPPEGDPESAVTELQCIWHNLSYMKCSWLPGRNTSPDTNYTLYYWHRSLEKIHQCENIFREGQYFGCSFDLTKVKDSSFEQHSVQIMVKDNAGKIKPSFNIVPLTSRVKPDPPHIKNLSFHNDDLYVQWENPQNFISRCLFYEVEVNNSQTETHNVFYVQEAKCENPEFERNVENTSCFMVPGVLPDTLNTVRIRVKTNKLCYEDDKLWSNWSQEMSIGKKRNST
UniProt P78552, sequence (P24394 26-232, chain 2 of 2, further chain): as the sequence (P24394 26-232) above

## human interleukin-4 (hIL-4) (from UniProt P05112 25-153) (ligand)
[1]
  Kd: 101 nM

## IL-4 (from UniProt P05112)
IL-4Rα (Homo sapiens)
  Kd: < 1 nM
